Legend:
Experiment in all cases: indirect ELISA, VLP coated at 2 µg/mL, antibody 10 ng/mL, HRP goat anti-rabbit Fc
HPV6 VLP protein = molecular target: T1, HPV6 VLP protein (human papillomavirus type 6 (C-terminal …, UniProt P69898 1-469))
T1 construct: Virus-like particle self-assembled from the L1 chain, expressed in an insect cell system; also called HPV6 L1; HPV6L1(1-469Y)+HPV33L1(474K-499K)
T1 sequence: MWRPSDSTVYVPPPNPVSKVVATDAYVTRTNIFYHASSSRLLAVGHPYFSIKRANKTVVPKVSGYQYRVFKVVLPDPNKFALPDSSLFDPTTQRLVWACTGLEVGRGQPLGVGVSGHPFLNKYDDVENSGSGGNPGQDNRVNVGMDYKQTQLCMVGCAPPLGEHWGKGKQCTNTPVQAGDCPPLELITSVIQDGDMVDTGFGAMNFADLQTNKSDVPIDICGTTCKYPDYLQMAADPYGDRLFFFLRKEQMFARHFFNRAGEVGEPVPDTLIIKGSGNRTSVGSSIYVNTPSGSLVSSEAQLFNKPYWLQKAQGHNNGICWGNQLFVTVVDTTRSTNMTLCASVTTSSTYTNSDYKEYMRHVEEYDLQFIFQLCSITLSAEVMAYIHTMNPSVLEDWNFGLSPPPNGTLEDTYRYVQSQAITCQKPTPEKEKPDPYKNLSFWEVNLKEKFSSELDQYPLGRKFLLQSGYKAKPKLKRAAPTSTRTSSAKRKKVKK

HPV39 VLP protein = HPV39 VLP protein (human papillomavirus type 39; human …, UniProt P24838 1-469)
HPV58 VLP protein = molecular target: T2, HPV58 VLP protein (human papillomavirus type 58, UniProt P26535 27-499)
T2 construct: Complete VLP protein; no limits of the construct printed, whole entry named; also called P58SHELL
T2 sequence: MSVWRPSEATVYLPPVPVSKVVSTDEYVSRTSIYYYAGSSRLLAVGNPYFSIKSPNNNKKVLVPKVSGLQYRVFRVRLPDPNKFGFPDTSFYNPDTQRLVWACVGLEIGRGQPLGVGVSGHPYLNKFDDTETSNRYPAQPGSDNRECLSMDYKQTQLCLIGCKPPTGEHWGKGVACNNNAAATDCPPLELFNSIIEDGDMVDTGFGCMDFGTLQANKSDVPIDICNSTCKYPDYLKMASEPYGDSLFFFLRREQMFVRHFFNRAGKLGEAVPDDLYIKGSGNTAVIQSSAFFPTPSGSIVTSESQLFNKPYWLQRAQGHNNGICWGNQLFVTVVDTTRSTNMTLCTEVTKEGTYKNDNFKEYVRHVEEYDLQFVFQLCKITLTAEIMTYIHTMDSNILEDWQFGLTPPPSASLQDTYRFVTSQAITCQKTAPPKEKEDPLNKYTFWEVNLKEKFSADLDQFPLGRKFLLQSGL

HPV56 VLP protein = molecular target: T3, HPV56 VLP protein (human papillomavirus type 56, UniProt P36743 36-507)
T3 construct: Complete VLP protein; no limits of the construct printed, whole entry named; also called HPV56L1
T3 sequence: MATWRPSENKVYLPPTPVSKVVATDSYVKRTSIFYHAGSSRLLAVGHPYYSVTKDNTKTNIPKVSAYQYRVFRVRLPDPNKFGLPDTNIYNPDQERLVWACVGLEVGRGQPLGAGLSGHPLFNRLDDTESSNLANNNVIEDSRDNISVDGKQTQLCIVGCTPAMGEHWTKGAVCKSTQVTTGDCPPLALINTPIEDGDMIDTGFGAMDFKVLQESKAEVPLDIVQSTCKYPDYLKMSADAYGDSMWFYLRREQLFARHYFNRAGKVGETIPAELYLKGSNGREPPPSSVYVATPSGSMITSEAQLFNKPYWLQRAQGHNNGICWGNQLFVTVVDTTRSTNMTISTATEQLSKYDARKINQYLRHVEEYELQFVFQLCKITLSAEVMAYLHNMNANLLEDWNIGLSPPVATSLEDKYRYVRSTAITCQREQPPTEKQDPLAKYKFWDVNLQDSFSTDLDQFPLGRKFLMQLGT

HPV33 VLP protein = molecular target: T4, HPV33 VLP protein (human papillomavirus type 33, UniProt P06416 1-499)
T4 construct: Complete VLP protein; no limits of the construct printed, whole entry named; also called HPV33L1
T4 sequence: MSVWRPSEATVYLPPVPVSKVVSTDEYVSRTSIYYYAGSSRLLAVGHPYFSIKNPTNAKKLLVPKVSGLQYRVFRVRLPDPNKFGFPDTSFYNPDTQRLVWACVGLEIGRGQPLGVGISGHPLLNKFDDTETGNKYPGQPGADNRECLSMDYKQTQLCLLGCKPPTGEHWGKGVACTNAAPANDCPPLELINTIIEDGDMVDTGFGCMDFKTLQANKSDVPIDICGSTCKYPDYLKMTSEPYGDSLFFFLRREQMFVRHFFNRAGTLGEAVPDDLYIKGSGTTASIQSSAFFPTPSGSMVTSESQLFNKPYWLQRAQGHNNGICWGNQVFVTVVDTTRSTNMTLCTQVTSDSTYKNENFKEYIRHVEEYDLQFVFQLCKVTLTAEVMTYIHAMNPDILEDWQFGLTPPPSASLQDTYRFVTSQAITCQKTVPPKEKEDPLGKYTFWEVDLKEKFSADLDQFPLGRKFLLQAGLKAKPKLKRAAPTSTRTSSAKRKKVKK

Chain of HPV39 VLP protein (P24838 whole entry): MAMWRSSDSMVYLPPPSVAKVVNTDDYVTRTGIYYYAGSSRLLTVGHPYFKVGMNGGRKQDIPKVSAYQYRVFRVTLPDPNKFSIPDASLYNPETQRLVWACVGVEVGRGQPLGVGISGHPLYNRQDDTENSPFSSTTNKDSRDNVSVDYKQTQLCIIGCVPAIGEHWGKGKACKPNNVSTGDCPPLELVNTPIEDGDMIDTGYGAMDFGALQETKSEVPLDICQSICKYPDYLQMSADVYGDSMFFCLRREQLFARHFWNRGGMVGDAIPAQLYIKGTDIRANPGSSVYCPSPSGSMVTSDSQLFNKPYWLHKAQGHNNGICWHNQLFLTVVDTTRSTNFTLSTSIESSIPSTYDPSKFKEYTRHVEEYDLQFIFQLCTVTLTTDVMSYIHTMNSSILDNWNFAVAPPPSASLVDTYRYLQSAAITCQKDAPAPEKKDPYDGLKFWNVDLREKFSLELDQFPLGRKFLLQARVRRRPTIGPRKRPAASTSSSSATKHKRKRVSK

B1: monoclonal antibody HPV6-R003 (antibody, V domains shown)
VH: QQQLEESGGGLVKPGGTLTLTCKASGIDLSNYYMCWVRQAPGKGLEWIGCIYTGSGRTYYASWAKGRFTISKASSTTVTLQMTSLTAADTATYFCARDYLGWRASNIWGPGTLVTVSS
VL: ELVMTQTPSSVSAAVGGTVTINCQASQSVYSNNLVWYQQKPGQPPKLLIYGASTLASGVPSRFKGSGSGTQFTLTISDVVCDDAATYYCGGYVSDSTDGTAFGGGTEVVVKG
notes: here built from variable plus constant region so that the signal peptides are left out; In the sandwich ELISA the same antibody is used as coating antibody and, labelled with horseradish peroxidase, as detection antibody; also called anti-HPV6 L1 protein antibody
OD450-blank (HPV6 VLP protein): 2.42 OD450
OD450-blank (HPV39 VLP protein): 0.047 OD450
OD450-blank (HPV58 VLP protein): 0.044 OD450
OD450-blank (HPV56 VLP protein): 0.042 OD450
OD450-blank (HPV33 VLP protein): 0.047 OD450
